Source: patent US20170145086A1

How the values were obtained:
[1] = target: HA-GCN4 hAPRIL (amino acid residues 105-250) (human) (UniProt O75888); test: blocking ELISA, 4-parameter fit; blocked: human APRIL binding to human BCMA-Fc
[2] = target: HA-GCN4 hAPRIL (amino acid residues 105-250) (human) (UniProt O75888); test: blocking ELISA; blocked: human APRIL binding to human BCMA-Fc
[3] = target: HA-GCN4 hAPRIL (amino acid residues 105-250) (human) (UniProt O75888); test: blocking ELISA; blocked: human APRIL binding to human TACI-Fc
[4] = target: HA-GCN4 hAPRIL (amino acid residues 105-250) (human) (UniProt O75888); test: blocking ELISA, 4-parameter fit; blocked: human APRIL binding to human TACI-Fc
[5] = target: HA-GCN4 hAPRIL (amino acid residues 105-250) (human) (UniProt O75888); test: blocking ELISA; blocked: APRIL binding to TACI-Fc
[6] = target: HA-GCN4 hAPRIL (amino acid residues 105-250) (human) (UniProt O75888); test: indirect ELISA, purified antibody, 3-parameter fit

HA-GCN4 hAPRIL (amino acid residues 105-250) (human), sequence (O75888 105-250): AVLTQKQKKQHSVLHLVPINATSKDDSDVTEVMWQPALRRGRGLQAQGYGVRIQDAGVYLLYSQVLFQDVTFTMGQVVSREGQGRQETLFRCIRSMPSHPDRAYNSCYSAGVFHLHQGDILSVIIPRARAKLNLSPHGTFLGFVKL

IC50 [1]: 3.14 nM | % Inhibition [2]: 99% | % Inhibition [3]: 99% | IC50 [4]: 2.85 nM | IC50 [5]: 0.204 µg/mL | EC50 [6]: 0.0104 µg/mL
B1: 0201 (antibody, from another filing)
scFv: EVQLVQSGAEVKKPGASVKVSCKTSGYTFTDNYMHWVRQAPGQGLEWMGWISPNSSTTLYAQKFRGRVTLTRDTSVSTAYMELSGLDSDDTALYFCARGGRLAGSTVFTPAFEYWGRGTMVTVSSGGGGSGGGGSGGGGSAQAVLTQPSSVSEAPRQRVTISCSGSSSNIGNNAVKWYQQLPGKAPKLLIYYDDLLPSGVSDRFSGSKSGTSASLAISGLQSEDEADYYCAAWDDSLNGYVFGTGTKVTVLG
